Assay results taken from article PMC3681689.

Key:
[1] = biological target: monothiol glutaredoxin 5 (Grx5) (S. cerevisiae) (UniProt Q02784); experiment: co-IP
[2] = biological target: N-terminally His-tagged S. cerevisiae Grx5 (recombinant) (S. cerevisiae) (UniProt Q02784); experiment: MST

Row | Substance | amount bound to anti-Grx5 immunobeads relative to Ssc1 [1] | Ka [2]
1 | Ssq1-glutathione S-transferase (GST) fusion protein (natural protein) | > 4 fold | 
2 | recombinant His-tagged S. cerevisiae Ssq1 (natural protein) |  | 440000 M⁻¹
